This test concerns the target mouse ASIC1a wild type (mouse) (UniProt Q6NXK8).
Sequence of UniProt Q6NXK8 (Q6NXK8 whole entry): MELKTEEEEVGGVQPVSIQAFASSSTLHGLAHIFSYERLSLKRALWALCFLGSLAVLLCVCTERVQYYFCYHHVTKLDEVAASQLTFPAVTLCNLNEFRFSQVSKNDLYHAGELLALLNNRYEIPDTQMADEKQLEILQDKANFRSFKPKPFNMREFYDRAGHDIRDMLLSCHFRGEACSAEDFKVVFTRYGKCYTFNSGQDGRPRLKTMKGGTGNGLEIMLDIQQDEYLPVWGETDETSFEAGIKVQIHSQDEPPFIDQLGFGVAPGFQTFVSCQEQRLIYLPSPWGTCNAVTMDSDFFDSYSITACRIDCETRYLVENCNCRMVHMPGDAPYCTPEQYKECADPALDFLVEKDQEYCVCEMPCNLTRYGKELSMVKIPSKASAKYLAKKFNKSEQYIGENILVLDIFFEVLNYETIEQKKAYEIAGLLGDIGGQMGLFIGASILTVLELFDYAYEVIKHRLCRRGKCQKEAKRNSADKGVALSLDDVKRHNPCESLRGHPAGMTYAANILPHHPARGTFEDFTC

The substance BigDyn Arg9Ala (peptide) gave a fold increase of the EC50 of current rescue against BigDyn (TEVC) of more than 50 fold.

Source of the values: doi:10.1101/816264.
